Test results from US20130029395.

Target: octadecenoyl-ACP

B1: Synechococcus elongatus PCC7942 YP-400611 (Synpcc7942-1594) protein with C-terminal His-tag (protein)
chain: MFGLIGHLTSLEQARDVSRRMGYDEYADQGLEFWSSAPPQIVDEITVTSATGKVIHGRYIESCFLPEMLAARRFKTATRKVLNAMSHAQKHGIDISALGGFTSIIFENFDLASLRQVRDTTLEFERFTTGNTHTAYVICRQVEAAAKTLGIDITQATVAVVGATGDIGSAVCRWLDLKLGVGDLILTARNQERLDNLQAELGRGKILPLEAALPEADFIVWVASMPQGVVIDPATLKQPCVLIDGGYPKNLGSKVQGEGIYVLNGGVVEHCFDIDWQIMSAAEMARPERQMFACFAEAMLLEFEGWHTNFSWGRNQITIEKMEAIGEASVRHGFQPLALAI
- Km for the reduction of octadecenoyl-ACP in the presence of 2 mM NADPH: 7.8 ± 2 µM
